Measured values taken from patent publication US7167802B2, “Methods for identifying agents that interact with MAP kinase activated protein kinase 2” (Wyeth, priority 2002, dated 2007).
Read-outs that look alike come from different tables or passages of the source.

Experiments:
[1] = molecular target: T1, MK2 (Homo sapiens, UniProt P49137); assay: MK2 kinase kinetics, continuous pyruvate kinase/lactate dehydrogenase coupled assay at 340 nm; format: biochemical; details: for Km: 25° C.
T1 construct: made in house; host or cells: E. coli BL21 (DE3)
Protocol: Activation of MK2 Constructs. The MK2 constructs 41–400 and 41–364 were activated by the phosphorylation of the constructs by p38 MAP kinase. The activation was done in 20 mM HEPES (pH 7.5), 10 mM MgCl2, 2 mM DTT, 0.50 mM ATP, 0.2 mg/ml MK2 and 0.125 μg activated p38. The reaction was incubated at 25° C. for 1–2 hour then placed on ice to be used for kinetic analysis.
Kinase Kinetics. The rate of MK2 kinase was characterized in 20 mM HEPES (pH 7.5), 10 mM MgCl2, 2 mM DTT and 100 mM NaCl. The kinetics was followed by linking the turnover of ATP is to the turnover of NADH to NAD. This was followed spectrophotometrically at 340 nm. The continuos assay contained 20 units pyruvate kinase, 30 units lactate dehydrogenase, 0.25 mM NADH, 2 mM PEP and 1.6 to 8.0 μg/mL MK2. For determining the apparent Km for ATP, the ATP concentration was varied from 0.005 to 0.25 mM while the peptide was held constant at 0.2 mM for activated MK-2 or 1.0 mM for the constitutively active form of MK-2 (41–364). For determining the apparent Km for LSP-1, the LSP-1 concentration was varied from 0.01 to 0.5 mM while ATP was held constant at 2 mM. The kinetic analysis was carried out in a 96-well plate at 25° C., on a Molecular Devices spectrophotometer.
Substrate Kinetics. Peptide LSP, based on the protein substrate of MK-2 lymphocyte/leukocyte specific protein, was used for the investigation of the kinetic mechanism for the enzyme MK-2. Data was fit to equation 1 for normal Michaelis-Menten kinetics. v=Vmax[S]/Km+[S] (1) where [S] is the substrate, Vmax is the maximum enzyme velocity, Km is the Michaelis constant.

[2] = tested on: MAP kinase activated protein kinase 2 (MK2); details: cited from earlier work
[3] = tested on: LPS-induced cytokine synthesis in human monocytes; details: cited from earlier work
[4] = p38 + (construct activated by p38 phosphorylation)
[5] = p38 + (construct activated by p38 phosphorylation), ATP held at 2 mM, read-out: Apparent Km (LSP-1)
[6] = p38 activated / phosphorylated by p38

T1 sequence (P49137 with tags, fused parts or gaps): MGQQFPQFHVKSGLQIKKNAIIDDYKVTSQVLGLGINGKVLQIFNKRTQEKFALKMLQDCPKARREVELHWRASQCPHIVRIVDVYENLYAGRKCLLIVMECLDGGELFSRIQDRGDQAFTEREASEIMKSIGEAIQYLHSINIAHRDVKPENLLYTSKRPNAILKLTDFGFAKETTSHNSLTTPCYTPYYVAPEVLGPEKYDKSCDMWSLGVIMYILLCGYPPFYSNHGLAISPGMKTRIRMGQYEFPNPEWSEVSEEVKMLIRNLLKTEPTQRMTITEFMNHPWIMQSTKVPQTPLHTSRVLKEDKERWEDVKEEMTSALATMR

Compound | Vmax ([1]; not phosphorylated) | Vmax [1, 4] | Km [1, 5] | Vmax [1, 6] | Vmax ([1]; p38 − (not phosphorylated)) | Km ([1]; p38 − (not phosphorylated), ATP held at 2 mM, read-out: Apparent Km (LSP-1)) | Km ([1]; p38 − (not phosphorylated), LSP-1 peptide held at 1.0 mM, listed as MK2 41-364, read-out: Apparent Km (ATP)) | Km ([1]; p38 − (not phosphorylated), LSP-1 peptide held at 1.0 mM, read-out: Apparent Km (ATP)) | Km for LSP-1 peptide substrate, fold higher compared to p38 phosphorylated MK2 41-400 ([1]; unphosphorylated MK2 41-364) | Vmax, fold lower compared to p38 phosphorylated MK2 41-400 ([1]; unphosphorylated MK2 41-364) | binding of the peptide substrate LSP-1, fold weaker than to p38 activated MK2 41-400 ([1]; unphosphorylated MK2 41-364 vs p38 activated MK2 41-400) | Km ([1]; p38 + (construct activated by p38 phosphorylation), LSP-1 peptide held at 0.2 mM, listed as MK2 41-400, read-out: Apparent Km (ATP)) | Km ([1]; p38 + (construct activated by p38 phosphorylation), LSP-1 peptide held at 0.2 mM, read-out: Apparent Km (ATP)) | activation of MK2 [2] | LPS-induced cytokine synthesis [3]
41-364: constitutively active MK2 polypeptide, residues 41–364, in which a portion of the C-terminal autoinhibitory domain was removed [Construct 41-364] | 0.076 µmol/min/mg | 11 + 14 μmole/min/mg | 20 µM | 11 µmol/min/mg | 0.076 + 0.004 μmole/min/mg | 584 µM | 7 µM | 15 µM | 45 fold | 100 fold | more than 40 fold | – | – | – | –
41-400: MK2 construct, amino acid residues 41–400, lacking the first 40 residues of the proline rich domain [Construct 41-400] | – | 8.9 + 0.1 μmole/min/mg | 13 µM | 8.9 µmol/min/mg | no activity | – | – | – | – | – | – | 15 µM | 7 µM | – | –
C[S+]([O-])c1ccc(-c2nc(-c3ccncc3)c(-c3ccc(F)cc3)[nH]2)cc1 (stereo not shown) [SB203580] | – | – | – | – | – | – | – | – | – | – | – | – | – | prevents the activation | inhibits LPS-induced cytokine synthesis
